Test results as given in PMC9278407, “Structure and regulation of the nuclear exosome targeting complex guides RNA substrates to the exosome” (Molecular Cell, 2022).
Blank lines part the entries; values can stand above or below the binder they belong to.

Key:
MTR4 (full length) [1] = biological target: T1, MTR4 (full length) (human, UniProt P42285 1-1042); assay: SEC; pre-assembled complexes of full-length MTR4, RBM7(RRM) and N-terminally truncated ZCCHC8 constructs ending at 337; Superdex 200 Increase 3.2/300; 20 mM Hepes-NaOH pH 7.5, 150 mM NaCl, 2 mM DTT; 300 pmol in 30 μL injected; peak fractions on SDS-PAGE; details: both partners purified
T1 construct: MTR4, human, full length; also called MTR4A; MTR4B; not shown: His6, N-terminal, cleaved; GST, N-terminal, cleaved
T1 sequence (looked up): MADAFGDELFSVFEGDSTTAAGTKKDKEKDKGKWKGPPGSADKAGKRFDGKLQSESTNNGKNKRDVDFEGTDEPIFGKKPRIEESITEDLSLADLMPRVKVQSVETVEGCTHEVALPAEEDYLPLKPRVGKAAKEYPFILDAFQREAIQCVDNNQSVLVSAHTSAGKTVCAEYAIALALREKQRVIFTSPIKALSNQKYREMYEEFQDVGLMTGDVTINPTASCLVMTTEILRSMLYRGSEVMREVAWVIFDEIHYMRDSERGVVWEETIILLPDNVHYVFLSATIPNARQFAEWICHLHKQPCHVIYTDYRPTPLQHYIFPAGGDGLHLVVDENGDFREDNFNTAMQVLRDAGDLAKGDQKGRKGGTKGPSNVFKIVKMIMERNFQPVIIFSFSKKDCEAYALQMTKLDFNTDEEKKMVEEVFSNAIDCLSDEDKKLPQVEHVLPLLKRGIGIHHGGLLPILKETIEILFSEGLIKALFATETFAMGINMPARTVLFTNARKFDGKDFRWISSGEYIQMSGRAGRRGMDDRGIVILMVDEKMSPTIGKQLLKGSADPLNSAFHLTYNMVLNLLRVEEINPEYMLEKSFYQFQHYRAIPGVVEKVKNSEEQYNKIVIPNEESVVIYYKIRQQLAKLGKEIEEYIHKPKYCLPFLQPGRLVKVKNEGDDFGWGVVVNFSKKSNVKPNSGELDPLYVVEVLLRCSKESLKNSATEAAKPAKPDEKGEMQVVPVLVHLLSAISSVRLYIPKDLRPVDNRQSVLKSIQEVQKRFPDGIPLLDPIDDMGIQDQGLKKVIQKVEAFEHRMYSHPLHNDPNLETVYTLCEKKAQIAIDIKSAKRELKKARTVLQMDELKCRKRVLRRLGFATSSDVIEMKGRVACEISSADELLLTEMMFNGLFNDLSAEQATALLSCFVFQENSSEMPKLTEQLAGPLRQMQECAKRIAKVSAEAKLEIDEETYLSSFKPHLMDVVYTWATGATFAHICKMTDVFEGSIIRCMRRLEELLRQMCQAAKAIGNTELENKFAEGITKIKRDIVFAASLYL

[2] = biological target: the molecule itself; assay: as above
MTR4 (full length) [3] = biological target: T1, MTR4 (full length); assay: cryo-EM structure; NEXT^L at 2 μM with equimolar 5'-hairpin-U60 RNA and 2 mM AMPPNP, 20 mM HEPES-NaOH pH 7.5, 50 mM NaCl, 2 mM DTT, 2 mM MgCl2; cross-linked with 0.03% glutaraldehyde; details: both partners purified
eYFP-(GS)3-MTR4(75-1042) [4] = biological target: T2, eYFP-(GS)3-MTR4(75-1042) (human, UniProt P42285 75-1042); assay: MST
T2 chain: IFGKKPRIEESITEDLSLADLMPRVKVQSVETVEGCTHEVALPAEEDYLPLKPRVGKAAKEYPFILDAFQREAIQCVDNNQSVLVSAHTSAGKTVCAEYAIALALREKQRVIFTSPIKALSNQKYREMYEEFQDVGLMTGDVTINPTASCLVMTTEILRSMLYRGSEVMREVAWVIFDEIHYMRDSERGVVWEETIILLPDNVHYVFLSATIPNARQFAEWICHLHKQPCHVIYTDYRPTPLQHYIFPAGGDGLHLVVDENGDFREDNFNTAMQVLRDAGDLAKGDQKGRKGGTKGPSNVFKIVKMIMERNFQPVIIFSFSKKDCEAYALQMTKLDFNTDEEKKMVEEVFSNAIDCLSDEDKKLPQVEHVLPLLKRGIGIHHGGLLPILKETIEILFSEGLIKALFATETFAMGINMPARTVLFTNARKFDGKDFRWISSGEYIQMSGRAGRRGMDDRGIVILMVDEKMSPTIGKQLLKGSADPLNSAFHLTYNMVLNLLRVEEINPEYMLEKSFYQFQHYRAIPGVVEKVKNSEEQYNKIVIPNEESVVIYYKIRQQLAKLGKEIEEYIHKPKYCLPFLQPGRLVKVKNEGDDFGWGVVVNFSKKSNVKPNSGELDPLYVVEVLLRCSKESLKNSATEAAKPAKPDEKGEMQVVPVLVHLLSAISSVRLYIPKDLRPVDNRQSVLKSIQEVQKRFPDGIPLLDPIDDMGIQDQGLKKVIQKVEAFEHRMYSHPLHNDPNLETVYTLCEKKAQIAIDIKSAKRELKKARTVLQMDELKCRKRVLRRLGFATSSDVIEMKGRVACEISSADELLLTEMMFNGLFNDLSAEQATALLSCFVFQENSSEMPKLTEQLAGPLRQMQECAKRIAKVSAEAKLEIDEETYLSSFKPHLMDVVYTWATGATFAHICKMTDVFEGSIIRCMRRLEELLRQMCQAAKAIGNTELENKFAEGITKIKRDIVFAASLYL

eYFP-(GS)3-MTR4(75-1042) [5] = biological target: T3, eYFP-(GS)3-MTR4(75-1042) (human, UniProt P42285 75-1042); assay: MST; eYFP-(GS)3-MTR4(75-1042) fixed at 50 nM, increasing ZCCHC8/RBM7; 50 mM HEPES-NaOH pH 7.5, 150 mM NaCl, 2 mM DTT, 10% glycerol, 0.1% Pluronic F-127; room temperature; triplicates; details: both partners purified
T3 construct: MTR4, human, residues 75-1042, joined to eYFP by a (GS)3 linker; also called eYFP-tagged MTR4; source: E. coli BL21 Star (DE3) pRARE, purified; not shown: eYFP, N-terminal, kept
T3 sequence (looked up): T2 chain

MTR4 (full length) [6] = biological target: T1, MTR4 (full length); assay: cryo-EM structure; NEXT^S at 15 μM with 1.2 molar excess RNA-U20 and 2 mM AMPPNP, 20 mM HEPES-NaOH pH 7.5, 150 mM NaCl, 2 mM DTT, 2 mM MgCl2; cross-linked with 1 mM BS3; details: both partners purified
[7] = biological target: the molecule itself; assay: as above

- binding result (MTR4 (full length) [1]): binds
B1: ZCCHC8 (residues 91-337) (domain or fragment, human, UniProt Q6NZY4 91-337, looked up)
chain: DGPILQILFMNNAISKQYHQEIEEFVSNLVKRFEEQQKNDVEKTSFNLLPQPSSIVLEEDHKVEESCAIKNNKEAFSVVGSVLYFTNFCLDKLGQPLLNENPQLSEGWEIPKYHQVFSHIVSLEGQEIQVKAKRPKPHCFNCGSEEHQMKDCPMPRNAARISEKRKEYMDACGEANNQNFQQRYHAEEVEERFGRFKPGVISEELQDALGVTDKSLPPFIYRMRQLGYPPGWLKEAELENSGLALYD
notes: source: E. coli BL21 Star (DE3) pRARE, co-expressed and co-purified with RBM7(1-98); not shown: His6, N-terminal, cleaved; GST or SUMO, N-terminal, cleaved
- binding result [2]: binds

- binding result (MTR4 (full length) [3]): binds
B2: ZCCHC8 deletion mutant Δ416-506 (natural protein, human)
chain: MAAEVYFGDLELFEPFDHPEESIPKPVHTRFKDDDGDEEDENGVGDAELRERLRQCEETIEQLRAENQELKRKLNILTRPSGILVNDTKLDGPILQILFMNNAISKQYHQEIEEFVSNLVKRFEEQQKNDVEKTSFNLLPQPSSIVLEEDHKVEESCAIKNNKEAFSVVGSVLYFTNFCLDKLGQPLLNENPQLSEGWEIPKYHQVFSHIVSLEGQEIQVKAKRPKPHCFNCGSEEHQMKDCPMPRNAARISEKRKEYMDACGEANNQNFQQRYHAEEVEERFGRFKPGVISEELQDALGVTDKSLPPFIYRMRQLGYPPGWLKEAELENSGLALYDGKDGTDGETEVGEIQQNKSVTYDLSKLVNYPGFNISTPRGIPDEWRIFGSIPMQACQQKDVFANYLTSNFQAPGVKSGSGAVDEDALTLEELEEQQRRIWAALEQAESVNSDSDVPVDTPLTGNSVASSPCPNELDLPVPEGKTSEKQTLDEPEVPEIFTKKSEAGHASSPDSEVTSLCQKEKAELAPVNTEGALLDNGSVVPNCDISNGGSQKLFPADTSPSTATKIHSPIPDMSKFATGITPFEFENMAESTGMYLRIRSLLKNSPRNQQKNKKASE
notes: ZCCHC8, human, deletion mutant lacking residues 416-506 but still including the C-terminal domain; Construct adapted from Puno and Lima (2018); also called ZCCHC8^L; hZCCHC8(Δ416-506); source: E. coli BL21 Star (DE3) pRARE, co-expressed and co-purified with RBM7(1-98); not shown: His6, N-terminal, cleaved; SUMO, N-terminal, cleaved

- binding result (MTR4 (full length) [1]): binds
B3: ZCCHC8 (residues 177-337) (domain or fragment, human, UniProt Q6NZY4 177-337, looked up)
chain: NFCLDKLGQPLLNENPQLSEGWEIPKYHQVFSHIVSLEGQEIQVKAKRPKPHCFNCGSEEHQMKDCPMPRNAARISEKRKEYMDACGEANNQNFQQRYHAEEVEERFGRFKPGVISEELQDALGVTDKSLPPFIYRMRQLGYPPGWLKEAELENSGLALYD
notes: source: E. coli BL21 Star (DE3) pRARE, co-expressed and co-purified with RBM7(1-98); not shown: His6, N-terminal, cleaved; GST, N-terminal, cleaved

- Kd (eYFP-(GS)3-MTR4(75-1042) [4]): 120 nM
B4: dimeric ZCCHC8(41-337)/RBM7(RRM) (complex)
chain 1: ENGVGDAELRERLRQCEETIEQLRAENQELKRKLNILTRPSGILVNDTKLDGPILQILFMNNAISKQYHQEIEEFVSNLVKRFEEQQKNDVEKTSFNLLPQPSSIVLEEDHKVEESCAIKNNKEAFSVVGSVLYFTNFCLDKLGQPLLNENPQLSEGWEIPKYHQVFSHIVSLEGQEIQVKAKRPKPHCFNCGSEEHQMKDCPMPRNAARISEKRKEYMDACGEANNQNFQQRYHAEEVEERFGRFKPGVISEELQDALGVTDKSLPPFIYRMRQLGYPPGWLKEAELENSGLALYD
chain 2: MGAAAAEADRTLFVGNLETKVTEELLFELFHQAGPVIKVKIPKDKDGKPKQFAFVNFKHEVSVPYAMNLLNGIKLYGRPIKIQFRSGSSHAPQDVSLS

- Kd (eYFP-(GS)3-MTR4(75-1042) [4]): 540 nM
- binding result (eYFP-(GS)3-MTR4(75-1042) [5]): binds
B5: monomeric ZCCHC8(177-337)/RBM7(RRM) (complex, human)
chain 1: B3 chain
chain 2: B4 chain 2
notes: RBM7, human, residues 1-98 with the RRM domain; also called monomeric ZCCHC8-RBM7 unit; source: E. coli BL21 Star (DE3) pRARE, co-expressed and co-purified; not shown: His6, N-terminal, cleaved; GST, N-terminal, cleaved; Z tag or SUMO, N-terminal, cleaved; copies: 1 + 1

- binding result (MTR4 (full length) [6]): binds
B6: ZCCHC8 (residues 41-337) (domain or fragment, human, UniProt Q6NZY4 41-337, looked up)
chain: B4 chain 1
notes: also called ZCCHC8^S; not shown: His6, N-terminal, cleaved; GST, N-terminal, cleaved
- stoichiometry N [7]: 2
